In patent US20250313634A1 (WUXI BIOLOGICS SHANGHAI, published 2025):

Columns and labels:
Experiment in all cases: capture ELISA on coated 1.14.4; relative to silent alanine substitutions
[1] = target: T1, hPD-L1_ECD.His point mutant D215A (human, UniProt Q9NZQ7 19-238)
T1 construct: extracellular domain
Method in brief: (§1)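 Capture ELISA in which supernatant containing quantified PD-L1 alanine mutant was detected with HRP anti-His antibody. Absorbance was normalized to the average of control mutants. Epitope residues were called at binding fold change <0.55.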

[2] = target: T2, hPD-L1_ECD.His point mutant Q83A (human, UniProt Q9NZQ7 19-238)
T2 construct: extracellular domain
Method in brief: as §1

[3] = target: T3, hPD-L1_ECD.His point mutant S80A (human, UniProt Q9NZQ7 19-238)
T3 construct: extracellular domain
Method in brief: as §1

[4] = target: T4, hPD-L1_ECD.His point mutant Y118A (human, UniProt Q9NZQ7 19-238)
T4 construct: extracellular domain
Method in brief: as §1

[5] = target: T5, hPD-L1_ECD.His point mutant T201A (human, UniProt Q9NZQ7 19-238)
T5 construct: extracellular domain
Method in brief: as §1

[6] = target: T6, hPD-L1_ECD.His point mutant Q107A (human, UniProt Q9NZQ7 19-238)
T6 construct: extracellular domain
Method in brief: as §1

[7] = target: T7, hPD-L1_ECD.His point mutant V128A (human, UniProt Q9NZQ7 19-238)
T7 construct: extracellular domain
Method in brief: as §1

[8] = target: T8, hPD-L1_ECD.His point mutant L50A (human, UniProt Q9NZQ7 19-238)
T8 construct: extracellular domain
Method in brief: as §1

[9] = target: T9, hPD-L1_ECD.His point mutant G70A (human, UniProt Q9NZQ7 19-238)
T9 construct: extracellular domain
Method in brief: as §1

[10] = target: T10, hPD-L1_ECD.His point mutant N236A (human, UniProt Q9NZQ7 19-238)
T10 construct: extracellular domain
Method in brief: as §1

[11] = target: T11, hPD-L1_ECD.His point mutant R212A (human, UniProt Q9NZQ7 19-238)
T11 construct: extracellular domain
Method in brief: as §1

[12] = target: T12, hPD-L1_ECD.His point mutant T154A (human, UniProt Q9NZQ7 19-238)
T12 construct: extracellular domain
Method in brief: as §1

[13] = target: T13, hPD-L1_ECD.His point mutant I38A (human, UniProt Q9NZQ7 19-238)
T13 construct: extracellular domain
Method in brief: as §1

[14] = target: T14, hPD-L1_ECD.His point mutant K46A (human, UniProt Q9NZQ7 19-238)
T14 construct: extracellular domain
Method in brief: as §1

[15] = target: T15, hPD-L1_ECD.His point mutant K89A (human, UniProt Q9NZQ7 19-238)
T15 construct: extracellular domain
Method in brief: as §1

[16] = target: T16, hPD-L1_ECD.His point mutant N183A (human, UniProt Q9NZQ7 19-238)
T16 construct: extracellular domain
Method in brief: as §1

[17] = target: T17, hPD-L1_ECD.His point mutant A52G (human, UniProt Q9NZQ7 19-238)
T17 construct: extracellular domain
Method in brief: as §1

[18] = target: T18, hPD-L1_ECD.His point mutant R125A (human, UniProt Q9NZQ7 19-238)
T18 construct: extracellular domain
Method in brief: as §1

[19] = target: T19, hPD-L1_ECD.His point mutant S93A (human, UniProt Q9NZQ7 19-238)
T19 construct: extracellular domain
Method in brief: as §1

[20] = target: T20, hPD-L1_ECD.His point mutant A121G (human, UniProt Q9NZQ7 19-238)
T20 construct: extracellular domain
Method in brief: as §1

[21] = target: T21, hPD-L1_ECD.His point mutant K162A (human, UniProt Q9NZQ7 19-238)
T21 construct: extracellular domain
Method in brief: as §1

[22] = target: T22, hPD-L1_ECD.His point mutant Q91A (human, UniProt Q9NZQ7 19-238)
T22 construct: extracellular domain
Method in brief: as §1

[23] = target: T23, hPD-L1_ECD.His point mutant D122A (human, UniProt Q9NZQ7 19-238)
T23 construct: extracellular domain
Method in brief: as §1

[24] = target: T24, hPD-L1_ECD.His point mutant L142A (human, UniProt Q9NZQ7 19-238)
T24 construct: extracellular domain
Method in brief: as §1

[25] = target: T25, hPD-L1_ECD.His point mutant E39A (human, UniProt Q9NZQ7 19-238)
T25 construct: extracellular domain
Method in brief: as §1

[26] = target: T26, hPD-L1_ECD.His point mutant V143A (human, UniProt Q9NZQ7 19-238)
T26 construct: extracellular domain
Method in brief: as §1

T12 sequence (Q9NZQ7 19-238 T154A): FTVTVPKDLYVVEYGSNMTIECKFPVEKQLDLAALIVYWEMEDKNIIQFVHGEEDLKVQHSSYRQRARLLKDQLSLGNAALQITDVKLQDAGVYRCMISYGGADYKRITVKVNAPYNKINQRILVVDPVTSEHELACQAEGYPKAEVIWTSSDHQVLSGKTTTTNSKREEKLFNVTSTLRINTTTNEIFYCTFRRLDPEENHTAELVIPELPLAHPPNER
T25 sequence (Q9NZQ7 19-238 E39A): as the sequence (Q9NZQ7 19-238 T154A) above, with E21A, A136T counted along it
T22 sequence (Q9NZQ7 19-238 Q91A): as the sequence (Q9NZQ7 19-238 T154A) above, with Q73A, A136T counted along it
T18 sequence (Q9NZQ7 19-238 R125A): as the sequence (Q9NZQ7 19-238 T154A) above, with R107A, A136T counted along it
T17 sequence (Q9NZQ7 19-238 A52G): as the sequence (Q9NZQ7 19-238 T154A) above, with A34G, A136T counted along it
T23 sequence (Q9NZQ7 19-238 D122A): as the sequence (Q9NZQ7 19-238 T154A) above, with D104A, A136T counted along it
T13 sequence (Q9NZQ7 19-238 I38A): as the sequence (Q9NZQ7 19-238 T154A) above, with I20A, A136T counted along it
T7 sequence (Q9NZQ7 19-238 V128A): as the sequence (Q9NZQ7 19-238 T154A) above, with V110A, A136T counted along it
T11 sequence (Q9NZQ7 19-238 R212A): as the sequence (Q9NZQ7 19-238 T154A) above, with A136T, R194A counted along it
T14 sequence (Q9NZQ7 19-238 K46A): as the sequence (Q9NZQ7 19-238 T154A) above, with K28A, A136T counted along it
T4 sequence (Q9NZQ7 19-238 Y118A): as the sequence (Q9NZQ7 19-238 T154A) above, with Y100A, A136T counted along it
T15 sequence (Q9NZQ7 19-238 K89A): as the sequence (Q9NZQ7 19-238 T154A) above, with K71A, A136T counted along it
T20 sequence (Q9NZQ7 19-238 A121G): as the sequence (Q9NZQ7 19-238 T154A) above, with A103G, A136T counted along it
T8 sequence (Q9NZQ7 19-238 L50A): as the sequence (Q9NZQ7 19-238 T154A) above, with L32A, A136T counted along it
T10 sequence (Q9NZQ7 19-238 N236A): as the sequence (Q9NZQ7 19-238 T154A) above, with A136T, N218A counted along it
T5 sequence (Q9NZQ7 19-238 T201A): as the sequence (Q9NZQ7 19-238 T154A) above, with A136T, T183A counted along it
T26 sequence (Q9NZQ7 19-238 V143A): as the sequence (Q9NZQ7 19-238 T154A) above, with V125A, A136T counted along it
T2 sequence (Q9NZQ7 19-238 Q83A): as the sequence (Q9NZQ7 19-238 T154A) above, with Q65A, A136T counted along it
T9 sequence (Q9NZQ7 19-238 G70A): as the sequence (Q9NZQ7 19-238 T154A) above, with G52A, A136T counted along it
T19 sequence (Q9NZQ7 19-238 S93A): as the sequence (Q9NZQ7 19-238 T154A) above, with S75A, A136T counted along it
T21 sequence (Q9NZQ7 19-238 K162A): as the sequence (Q9NZQ7 19-238 T154A) above, with A136T, K144A counted along it
T3 sequence (Q9NZQ7 19-238 S80A): as the sequence (Q9NZQ7 19-238 T154A) above, with S62A, A136T counted along it
T6 sequence (Q9NZQ7 19-238 Q107A): as the sequence (Q9NZQ7 19-238 T154A) above, with Q89A, A136T counted along it
T24 sequence (Q9NZQ7 19-238 L142A): as the sequence (Q9NZQ7 19-238 T154A) above, with L124A, A136T counted along it
T1 sequence (Q9NZQ7 19-238 D215A): as the sequence (Q9NZQ7 19-238 T154A) above, with A136T, D197A counted along it
T16 sequence (Q9NZQ7 19-238 N183A): as the sequence (Q9NZQ7 19-238 T154A) above, with A136T, N165A counted along it

B1: 1.14.4 (antibody, V domains shown)
VH: EVQLLESGGGLVQPGGSLRLSCAASGFTFSSYAMSWVRQAPGKGLEWVSGISGSGGFTYYADSVKGRFTISRDNSKNTLYLQMNSLRAEDTAVYYCAKPPRGYNYGPFDYWGQGTLVTVSS
VL: SYVLTQPPSVSVAPGQTARITCGGNNIGSKSVHWYQQKPGQAPVLVVYDDSDRPSGIPERFSGSNSGNTATLTISRVEAGDEADYYCQVWDSSSDHVVFGGGTKLTVL
notes: Fully human monoclonal antibody with a human constant region of IgG4 isotype
[1]
  fold change: 0.811 fold
[2]
  fold change: 0.982 fold
[3]
  fold change: 0.974 fold
[4]
  fold change: 0.701 fold
[5]
  fold change: 0.781 fold
[6]
  fold change: 0.792 fold
[7]
  fold change: 0.701 fold
[8]
  fold change: 0.614 fold
[9]
  fold change: 0.602 fold
[10]
  fold change: 0.848 fold
[11]
  fold change: 0.87 fold
[12]
  fold change: 0.888 fold
[13]
  fold change: 1.13 fold
[14]
  fold change: 1.08 fold
[15]
  fold change: 0.913 fold
[16]
  fold change: 0.944 fold
[17]
  fold change: 0.622 fold
[18]
  fold change: 0.959 fold
[19]
  fold change: 1.15 fold
[20]
  fold change: 1.15 fold
[21]
  fold change: 0.99 fold
[22]
  fold change: 0.906 fold
[23]
  fold change: 1.22 fold
[24]
  fold change: 1.05 fold
[25]
  fold change: 0.831 fold
[26]
  fold change: 1.02 fold
